# Results reported in patent US20250000936A1, “TREATMENT OF GEOGRAPHIC ATROPHY” (Apellis Pharmaceuticals, Inc., priority 2021, published 2025).
# Several values for one entry are separate records, joined by “and”; a condition that tells them apart may be missing. Identical values can stand only once.
# Tested on: patients with geographic atrophy (GA) secondary to age-related macular degeneration (AMD)
# Test: OAKS Phase 3 study: safety
# Conditions: for Patients with new onset fellow eye eAMD: through 18 months
# [1] = PEOM (every other month), 12 months
# [2] = PEOM (every other month), 18 months
# [3] = PEOM (every other month), N=212
# Procedure: All randomized subjects returned every month to the clinical site for assessments and additional pegcetacoplan or sham injections according to their randomization scheme until Month 12. From Month 12 onwards, subjects return to the clinical site based on their randomized treatment schedule (monthly or EOM) and follow the treatment regimen and assessments outlined in the Visit Schedule until Month 24. Safety was assessed throughout the study by a number of evaluations including: monitoring of AEs, preinjection and postinjection monitoring, blood and urine samples collected, physical examination, vital signs, and follow-up phone calls. Blood samples were also be collected for anti-therapeutic antibodies, genotyping, and clinical repository (if the subject consented to this portion).
# The Safety set consisted of all subjects randomized who received at least one injection of pegcetacoplan or sham. Subjects were analyzed according to the actual treatment received. […] This population was used for all safety analyses.
substance,measurement,setting,value
"Poly(oxy-1,2-ethanediyl), α-hydro-ω-hydroxy-, 15,15′-diester with N-acetyl-L-isoleucyl-L-cysteinyl-L-valyl-1-methyl-L-tryptophyl-L-glutaminyl-L-α-aspartyl-L-tryptophylglycyl-L-alanyl-L-histidyl-L-arginyl-L-cysteinyl-L-threonyl-2-[2-(2-aminoethoxy) ethoxy]acetyl-N^6-carboxy-L-lysinamide cyclic (2->12)-(disulfide) [pegcetacoplan]","All TEAEs, Total events, M",[1],721
same,"All TEAEs, patients",[1],160 (75.5%) n (%)
same,Cases of MNV (FA) detected by reading center but not reported by Investigator as AE,[1],3
same,"Non-ocular TEAEs, Patients",[1],127 (59 9%) n (%)
same,"Non-ocular TEAEs, events M",[1],412
same,"Ocular TEAE in study eye Conjunctival haemorrhage, events M",[1],16
same,"Ocular TEAE in study eye Conjunctival haemorrhage, patients",[1],13 (6.1%) n (%)
same,"Ocular TEAE in study eye Eye Pain, events M",[1],14
same,"Ocular TEAE in study eye Eye Pain, patients",[1],12 (5.7%) n (%)
same,"Ocular TEAE in study eye Vitreous floaters, events M",[1],20
same,"Ocular TEAE in study eye Vitreous floaters, patients",[1],15 (7.1%) n (%)
same,"Ocular TEAEs in study eye, Patients",[1],97 (45.8%) n (%) and 97 (45.8) n (%)
same,"Ocular TEAEs in study eye, events M",[1],208
same,"Serious ocular TEAE Endophthalmitis, events M",[1],3
same,"Serious ocular TEAE Endophthalmitis, patients",[1],3 (1.4%) n (%)
same,"Serious ocular TEAE Macular hole, patients",[1],0 n (%)
same,"Serious ocular TEAE Optic ischemic neuropathy, patients",[1],0 n (%)
same,"Serious ocular TEAE Papilledema, patients",[1],0 n (%)
same,"Serious ocular TEAE Retinal detachment, events M",[1],1
same,"Serious ocular TEAE Retinal detachment, patients",[1],1 (0.5%) n (%)
same,"Serious ocular TEAEs in the study eye, events M",[1],4
same,"Serious ocular TEAEs in the study eye, patients",[1],4 (1.9%) n (%)
same,Sum of investigator-determined eAMD and reading center cases not reported by investigators,[1],(6.1%)
same,Sum of investigator-determined eAMD and reading center cases not reported by investigators,"PEOM (every other month), 12 months, count",13
same,"All TEAEs, Total events, M",[2],965
same,"All TEAEs, patients",[2],177 (83.5%) n (%)
same,"Non-ocular TEAEs, M",[2],567
same,"Non-ocular TEAEs, Patients",[2],158 (74.5%) n (%)
same,"Ocular TEAEs in study eye, M",[2],270
same,"Ocular TEAEs in study eye, Patients",[2],114 (53.8%) n (%)
same,"Discontinued study prior to Month 12, reason Adverse Event",[3],5 (2.4%) n (%)
same,"Discontinued study prior to Month 12, reason Death",[3],3 (1.4%) n (%)
same,"Discontinued study prior to Month 18, reason Adverse event",[3],4 (1.9%) n (%)
same,"Discontinued study prior to Month 18, reason Death",[3],7 (3.3%) n (%)
same,Patients with new onset fellow eye eAMD,"PEOM (every other month), 173 patients without baseline fellow eye CNV",5 (2.9%) n (%)
same,"All TEAEs, Total events, M","PM (monthly), 12 months",751
same,"All TEAEs, patients","PM (monthly), 12 months",170 (79.8%) n (%)
same,Cases of MNV (FA) detected by reading center but not reported by Investigator as AE,"PM (monthly), 12 months",2
same,"Non-ocular TEAEs, Patients","PM (monthly), 12 months",136 (63.8%) n (%)
same,"Non-ocular TEAEs, events M","PM (monthly), 12 months",390
same,"Ocular TEAE in study eye Conjunctival haemorrhage, events M","PM (monthly), 12 months",30
same,"Ocular TEAE in study eye Conjunctival haemorrhage, patients","PM (monthly), 12 months",18 (8.5%) n (%)
same,"Ocular TEAE in study eye Eye Pain, events M","PM (monthly), 12 months",17
same,"Ocular TEAE in study eye Eye Pain, patients","PM (monthly), 12 months",15 (7.0%) n (%)
same,"Ocular TEAE in study eye Vitreous floaters, events M","PM (monthly), 12 months",10
same,"Ocular TEAE in study eye Vitreous floaters, patients","PM (monthly), 12 months",9 (4.2%) n (%)
same,"Ocular TEAEs in study eye, Patients","PM (monthly), 12 months",108 (50.7%) n (%)
same,"Ocular TEAEs in study eye, events M","PM (monthly), 12 months",256
same,"Serious ocular TEAE Dry AMD, patients","PM (monthly), 12 months",0 n (%)
same,"Serious ocular TEAE Endophthalmitis, events M","PM (monthly), 12 months",3
same,"Serious ocular TEAE Endophthalmitis, patients","PM (monthly), 12 months",1 (0.5%) n (%)
same,"Serious ocular TEAE Macular hole, patients","PM (monthly), 12 months",0 n (%)
same,"Serious ocular TEAE Optic ischemic neuropathy, events M","PM (monthly), 12 months",3
same,"Serious ocular TEAE Optic ischemic neuropathy, patients","PM (monthly), 12 months",1 (0.5%) n (%)
same,"Serious ocular TEAE Papilledema, events M","PM (monthly), 12 months",3
same,"Serious ocular TEAE Papilledema, patients","PM (monthly), 12 months",1 (0.5%) n (%)
same,"Serious ocular TEAE Retinal detachment, patients","PM (monthly), 12 months",0 n (%)
same,"Serious ocular TEAE Vitritis, patients","PM (monthly), 12 months",0 n (%)
same,"Serious ocular TEAEs in the study eye, events M","PM (monthly), 12 months",3
same,"Serious ocular TEAEs in the study eye, patients","PM (monthly), 12 months",3 (1.4%) n (%)
same,Sum of investigator-determined eAMD and reading center cases not reported by investigators,"PM (monthly), 12 months",(6.1%)
same,Sum of investigator-determined eAMD and reading center cases not reported by investigators,"PM (monthly), 12 months, count",13
same,"All TEAEs, Total events, M","PM (monthly), 18 months",1037
same,"All TEAEs, patients","PM (monthly), 18 months",185 (86.9%) n (%)
same,"Non-ocular TEAEs, M","PM (monthly), 18 months",573
same,"Non-ocular TEAEs, Patients","PM (monthly), 18 months",152 (71.4%) n (%)
same,"Ocular TEAEs in study eye, M","PM (monthly), 18 months",325
same,"Ocular TEAEs in study eye, Patients","PM (monthly), 18 months",126 (59.2%) n (%)
same,"Discontinued study prior to Month 12, reason Adverse Event","PM (monthly), N=213",3 (1.4%) n (%)
same,"Discontinued study prior to Month 12, reason Death","PM (monthly), N=213",7 (3.3%) n (%)
same,"Discontinued study prior to Month 18, reason Adverse event","PM (monthly), N=213",6 (2.8%) n (%)
same,"Discontinued study prior to Month 18, reason Death","PM (monthly), N=213",12 (5.6%) n (%)
same,Patients with new onset fellow eye eAMD,"PM (monthly), 168 patients without baseline fellow eye CNV",8 (4.8%) n (%)
same,patients with study eye investigator-determined new-onset exudative AMD,"every other month, month 18, 15/212 patients",7.1%
same,patients with study eye investigator-determined new-onset exudative AMD,"monthly, month 18, 16/213 patients",7.5%
